# Test results from a protein production outcome set (Wang et al. 2014).
# Assay: label from the status in PepcDB records
row,Sequence,protein production
1,MAIHVGIIDQDPVRLVTPLLDHRTVSRHIIFIGDHTQTVIYQRLSDVLNKRNISTDFFEIPAGSNTSAIKSAIRELAETLKARGEEVKFNASCGLRHRLLSAYEVFRSYHWPIFVVEPNSDCLCWLYPEGNNDTQVQDRITIADYLTIFGARGEFNEHQLSPQLDQQLYQLGERWASNALELGPGLATLNYLATTCRKEQKLDVELSDKQQGYRELNLLLSDLVEAKIASYENGILTFINEEARRFANGEWLETLVHSTVKQIQDDMPTIQDRSLNVQVYRQLGEREVRNELDVATVVNNKLHIIECKTKGMRDDGDDTLYKLESLRDLLGGLQARAMLVSFRPLRHNDITRAEDLGLALIGPDELKDLKTHLTQWFKAAGGN,not failed
2,MAIKITPDEFSLLIQRLNKKWRVFAPSAEFRGGRFSDTDNIIYQRISGWRDLIWHEKSHMSPNTIIAPITETLFYFDKDTIQIAETDTSPIIIFARACDINAMSRLDYMYLSNGNNSDYSYQLLREHIRFVLIECEKSFENCFCVSMGTNKTDCYSAAMRFSDEGALVSIRDPFIEAAIQGLGQEADYTPSFVSENRETVVTPDSVCRDPQKIRDILTRHPLWDAYDSRCISCGRCTTGCPTCTCYSVFDVAYDENPQRGERRRQWASCMVPGFSDMAGGHGFREKPGERLRYRALHKVNDYKARNGIEHMCVGCGRCDDRCPQYIKFSLIINKMTAAVRQALAEEA,failed
3,MAIKSISSSLLTRVLSVYFLLTLIVTAIQIGAEYFDTKRVLIAELQNQQSTFNGSLTRSLWEFNSNQIDTIADGLISIPAIAGVLIRDDAGNILVQLGETTEMSDLPDDNSEGALLPERNGIFGYYDSLIFEFSGHSTKVGDVSLFSTRDIAIDRIKVSLGFIIGNAIIKSIFLIVLFTIAFNRMLNRPLSDLTQQIKGFRLDNLERSRIRLDDQHNNELVLVEQAYNQLLDNIEEYQSDLDRTQKKLKAANRQLDEQNAILEQEVARKTSSLSQVMLDLEQRKNELEMRQEKLEREVGQRRAIENTLRQSNQRLESSLNNLRETQQQLIESEKMASLGGLVAGITHDVNTPIGISVTASSYLREKLDTLDQSLLNKELTQTQLKKFIEEGRESLNLLDSNLHRASDLISSFKQVAVDQASDAIRDINLKSYIEDLVQSLQPHLKKTNHQVRLECADDIFIRCPAGALSQIFTNLILNSLRHAFDGISEGLMIISIRLDGETLQVHYSDNGNGLSEAQLKRLFDPFFTTKRDQGGSGLGTHIVRNLVTQTLSGEISAESEPGKGLSYFFSFSVQVLN,failed
4,MAILLALIPIMMIFICLFLFKQTSLRSSLIAYVVSVGIVLLSPMFQLGISETVHATIKGSLICFIVGYVLFFGIFLFHLMNKMGYIDQVARFLEEVTHDRLLQMLLMCFGICPLIESVSGFGIGFMVAAPIFLSLGYKPFQAVLLSFIGLLASSWGAMATGTIIGSQLINMPLTTLGTNTALLSIPMFAYFVILSLHVVGGWQAVIEKWKEGIGFFLLFSLGIYLSNAYVSVELAGILSSIVTITFGFLIIKLKGKSEQNLMSEHAAATEREVSIIKIISPYIFLTVCILLSRLVPALHDVFRSYAVLDLKSFSYKLEMLYSPGFWLGMTCLFTIIFFRIPSNIIKQSLSQTIKQWIPFAITTTMFIAISELMGASGMHSLLAKTAGETFGTFFVFVAPFIGGIGGFLTGSNAGSNAMFIKLQMQTAQNVALPWQYVTTLQNTASSVATIACPSRITLGAYLCNIPYRENELLKKTTLMIFGAVLLIVVEVIFWYMLRN,failed
5,MAINLNDYKRVAQNLKVNKKNMREFLFDFRVNGKRYRKVETLIERTGWNKKDYEREAQLLLIDYRKKVEANTGNLQITSNTRLNELWELYFQTLDKSTSWTFTKESFYNRYLKEPLGKKKLDSIQEHHIMAIIRHLQAEGMATRTVNTTLEILRPLFDFAIKNKALRDNPTRFIVLKKDNTKKIVINGAEMFKRIFEGINDYYSSQPFYRALFLFGFTGRRKGEILKLKWENIDLDNNYYWIEDTKNNEKQKYELPHFIKEALLQIQDTHTGLVFKSPVTGRMLENTDGQMNKLKKHLNMPELTLHYMRNVLVSALAERGTEAITLSGMLGHRDATTINKYLSLSYHNSSKKGNATMGQIIDAEVVE,failed
6,MAIQLKKGNRISLKKEAPGLKKVMLGLGWDMATSSSGGGFFGIFKKPAGSIDLDSGVLCLDSQGKLNSASDFVYYANLNHKSGAIAHQGDNLTGAGEGDDEQIFVDLEQVPATIQSLLFTVTIYQGRQRGQEFGQIKNAFVRLVDLSNNQEIAHYKLSGETYQGKTGMLMAELRREENGWAMTALGDGLDPQDSENLLKKYR,failed
7,MAIQVKASLRKNPQDKKAAGKYYAQVVLAPEMTQRQIIDQIADRCTVTGSDVKAVLDALMTVIKRNLANGSPIRLGDLGSFRPSVSGIGSENVDKFTASNVKKARVIYVPSAEIKEAVAMYAFSKVGATAEGGNTEKPGGGDIDNPGGGDEEAPDPTVLEHHHHHH,not failed
